According to patent US20100209400A1, “TAK1-Mediated Regulation of Osteogenesis” (priority 2003, published 2010):

Columns and labels:
C3H10T½-BMP2 cells [1] = assay: FACS for apoptosis and cell cycle progression; format: cell-based, murine; details: CDDP 25 μM; etoposide 10 μM; TAK1 variants stably co-expressed
Description: Exponentially growing cells were harvested 48 hours post-seeding or at different stages at and after confluence by trypsinization and fixation with 80% methanol. Cellular DNA content was determined by staining cells with RNAseS/propidium iodide, and measuring fluorescence in a Becton Dickinson FACScan. For each cell population, 10,000 cells were analyzed, and the proportions in G0/G1, G2/M and S-phases were estimated by using Modfit cell cycle analysis software. Information on cell size (e.g. due to differentiation) and complexity could be obtained from forward and side scatter data following evaluation of relevant cell populations.
To determine whether TAK1-mediated effects in the assay systems above resulted from apoptosis, C3H10T½-BMP2 cells co-expressing TAK1 variants were assayed by FACS for apoptosis and cell cycle progression.

[2] = test system: nucleo-cytoplasmic shuttling of SMAD1 and SMAD3; assay: Immunofluorescence of Flag-tagged SMAD1 and SMAD3 localisation in HEK293T cells; format: cell-based, human; details: Flag-tagged SMADs
Description: HEK293T cells were seeded at 2×10^5 cells/well into poly-D-lysine coated 6-well plates one day prior to transfection. Transient transfections were conducted with Fugene 6. After 30 hours, the cells were fixed with 4% paraformaldehyde in phosphate buffered saline (PBS) for 10 minutes, washed twice with PBS, and permeabilized with methanol followed by 0.5% Triton-X 100 in PBS. After washing with 0.1% Triton-X 100 in PBS (PBT), blocking was performed with 5% FCS in PBT for 1 hour at room temperature. Following another PBT wash, tagged proteins were incubated with the appropriate primary antibodies. Detection was accomplished via goat anti mouse-Alexa 488 (A-11001, Molecular Probes) (5 μg/ml) antibody for murine primary antibodies.
To determine whether TAK1-dependent interference with SMAD activity affected subcellular distribution of SMAD, immunofluorescence was used to localize flag-tagged SMAD1 or SMAD3 expressed in HEK293T cells in the absence or presence of constitutively active receptors (FIG. 7).

C3H10T½-BMP2 cells [3] = assay: Histological analysis and alkaline phosphatase staining of C3H10T½-BMP2 cells; format: cell-based, murine
Description: Murine C3H10T½ progenitor cells were cultured in high-glucose DMEM containing 10% fetal calf serum, as described (Ahrens Met al, DNA Cell Biol, 12: 871-880, 1993). Cells were stably transfected with expression plasmids encoding wt TAK1, dominant-negative (dn) or constitutively active (ca) TAK1 in pMT7T3-f1 using DOSPER™ according to the manufacturer's protocol (Roche, Mannheim) and a selection plasmid conferring puromycin resistance (pBSpacDp: parental C3H10T½ cells) or G418-resistance (pAG60: BMP2-expressing C3H10T½ cells). Individual clones were picked, propagated, and tested for recombinant expression of TAK1-variants by RT-PCR using a vector-specific and a gene-specific primer. Control cell lines (empty to expression vector) were established at the same time. Cells were plated at a density of 5,000 cells/cm^2. After reaching confluence (arbitrarily termed day 0) ascorbic acid (50 microgram/milliliter (μg/ml)) and b-glycerophosphate (10 millimolar (mM)) were added.
Proteoglycan-secreting chondrocytes were identified by staining with Alcian Blue at pH 2.5 (Alcian Blue 8GS, Roth, Karlsruhe).
Osteoblast formation was evaluated as a measure of TAK1 influence on osteo-/chondrogenic differentiation potential. C3H10T½-BMP2 cells co-expressing TAK1 and its molecular variants were assessed histologically for alkaline phosphatase (ALP) activity (FIG. 8C), which is indicative of osteoblast differentiation.

B1: TAK1dn: dominant-negative TAK1 mutant (K63W), kinase inactive (protein)
chain: MSTASAASSSSSSSASEMIEAPSQVLNFEEIDYKEIEVEEVVGRGAFGVVCKAKWRAKDVAIWQIESESERKAFIVELRQLSRVNHPNIVKLYGACLNPVCLVMEYAEGGSLYNVLHGAEPLPYYTAAHAMSWCLQCSQGVAYLHSMQPKALIHRDLKPPNLLLVAGGTVLKICDFGTACDIQTHMTNNKGSAAWMAPEVFEGSNYSEKCDVFSWGIILWEVITRRKPFDEIGGPAFRIMWAVHNGTRPPLIKNLPKPIESLMTRCWSKDPSQRPSMEEIVKIMTHLMRYFPGADEPLQYPCQYSDEGQSNSATSTGSFMDIASTNTSNKSDTNMEQVPATNDTIKRLESKLLKNQAKQQSESGRLSLGASRGSSVESLPPTSEGKRMSADMSEIEARIVATAGNGQPRRRSIQDLTVTGTEPGQVSSRSSSPSVRMITTSGPTSEKPARSHPWTPDDSTDTNGSDNSIPMAYLTLDHQLQPLAPCPNSKESMAVFEQHCKMAQEYMKVQTEIALLLQRKQELVAELDQDEKDQQNTSRLVQEHKKLLDENKSLSTYYQQCKKQLEVIRSQQQKRQGTS
modifications: left off: small tags and cut ends
apoptosis (subG0-G1 peak) (C3H10T½-BMP2 cells [1]): did not induce apoptosis | subcellular localisation of SMAD1 and SMAD3 [2]: predominantly in the nucleus | growth phenotype of C3H10T½-BMP2 cells expressing the TAK1 variant (C3H10T½-BMP2 cells [3]; after confluence): Multiple layer growth | osteoblast-like cell formation / ALP activity (C3H10T½-BMP2 cells [3]; compared to C3H10T½-BMP2 cells, 10 days post-confluence): enhanced ALP activity
